Assay results reported in patent US20180214476.

Tested on: T1, thrombin cleavable peptide GGLVPRGSGGC
T1 sequence: GGLVPRGSGGC

thrombin
cleavage of the peptide by thrombin, LCMS analysis: the peptides were efficiently cleaved after 12 h incubation with 1 U mL^-1 thrombin in Tris buffer
